Experimental findings from patent US8987424B2, “CA6 antigen-specific cytotoxic conjugate and methods of using the same” (ImmunoGen, Inc., priority 2003, dated 2015) are described below.

Data set [1] has as its system A375 cells (antigen negative). The data set can be described thus: Clonogenic assay. The format is cell-based, human. To be noted: 3×10^−9 M, highest concentration tested. As for the experimental part: (§1) The cytotoxicity of maytansinoid conjugated muDS6 antibody was examined using 2 different assay formats in various DS6 positive cell lines. Clonogenic assays were conducted where cells (1000-2500 cells/well) were plated on 6-well plates in 2 ml of conjugate diluted in culture media. […] The wells were washed with PBS and the colonies were stained with a 1% w/v crystal violet/10% v/v formaldehyde/PBS solution. Unbound stain was then washed thoroughly from the wells with distilled water, and the plates were allowed to dry. The colonies were counted using a Leica StereoZoom 4 dissecting microscope.
(§2) Plating efficiency (PE) was calculated as the number of colonies/number of cells plated. Surviving fraction was calculated as PE of treated cells/PE of non-treated cells. The IC50 concentration was determined by graphing the surviving fraction of cells vs. the molar concentration of the conjugate.

In data set [2] the test system is cervical cell lines (HeLa, KB, and WISH). The data set can be described thus: Clonogenic assay. Format: cell-based, human. The method, then: as §1, §2
For another data set, the system named is pancreatic cell lines. Briefly: Clonogenic assay. The format is cell-based, human. The method, then:
as §1, §2

In a further data set the test system is TOV-21G tumor xenografts. The data set can be described thus: Subcutaneous TOV-21G xenograft efficacy study. The format is in vivo, SCID mice. As for the experimental part:
(§3) OVCAR5 (FIG. 26A and FIG. 26B), TOV-21 G (FIG. 26C and FIG. 26D), HPAC (FIG. 26E and FIG. 26F), and HeLa (FIG. 26G and FIG. 26H) cells were inoculated on day 0, and immunoconjugate treatments were given on day 6 and 13. PBS control animals were euthanized once tumor volumes exceeded 1000 mm^3. The conjugate was given at a dose of 600 μg/kg DM1, corresponding to an antibody concentration 27.7 mg/kg. Tumor volume (FIG. 26A, FIG. 26C, FIG. 26E, and FIG. 26G) and body weight (FIG. 26B, FIG. 26D, FIG. 26F, and FIG. 26H) of the mice were monitored during the course of the study.
(§4) muDS6-DM 1 activity was further tested on a panel of subcutaneous xenograft models (see FIG. 26). […] OVCAR5 cells and TOV-21 G are ovarian tumor cell lines; HPAC is a pancreatic tumor cell line; HeLa is a cervical tumor cell line. OVCAR5 and TOV-21G cells have low surface CA6 expression; HeLa cells have an intermediate level of surface CA6 expression; HPAC cells have a high CA6 density of surface expression. TOV-21G and HPAC cells are maytansine sensitive; OVCAR5 and HeLa cells are 2-7-fold less maytansine sensitive.
(§5) The 4 cell-lines were grown in vitro, collected, and 1×10^7 cells in a 100 μL of serum free medium were injected under the right shoulder of each mouse (6 mice per model) and allowed to grow for 6 days to an average tumor volume of 57.6±6.7 and 90.2±13.4 mm^3 for the test and control groups respectively of OVCAR5, 147.1±29.6 and 176.2±18.9 mm^3 for the test and control groups respectively of HPAC, 194.3±37.2 and 201.7±71.7 mm^3 for the test and control groups respectively of HeLa, and 96.6±22.8 and 155.6±13.4 mm^3 for the test and control groups respectively of TOV-21G, at which time drug treatment was initiated. For each model three control mice were treated with two weekly doses of PBS and three test mice were treated with two weekly doses of conjugate (600 μg/kg DM1) intravenously. Toxic responses were monitored daily during the treatment and tumor volumes and body weights were monitored throughout the study. […]

The subject of another data set is OVCAR5 tumor xenografts. The data set can be described thus: Subcutaneous OVCAR5 xenograft efficacy study. The format is in vivo, SCID mice. The method, then:
as §3, §4
The 4 cell-lines were grown in vitro, collected, and 1×10^7 cells in a 100 μL of serum free medium were injected under the right shoulder of each mouse (6 mice per model) and allowed to grow for 6 days to an average tumor volume of 57.6±6.7 and 90.2±13.4 mm^3 for the test and control groups respectively of OVCAR5, 147.1±29.6 and 176.2±18.9 mm^3 for the test and control groups respectively of HPAC, 194.3±37.2 and 201.7±71.7 mm^3 for the test and control groups respectively of HeLa, and 96.6±22.8 and 155.6±13.4 mm^3 for the test and control groups respectively of TOV-21G, at which time drug treatment was initiated. For each model three control mice were treated with two weekly doses of PBS and three test mice were treated with two weekly doses of conjugate (600 μg/kg DM1) intravenously. Toxic responses were monitored daily during the treatment and tumor volumes and body weights were monitored throughout the study. […] The HeLa model had about a 3 week lag period before beginning exponential growth. […] For the TOV-21 G, HPAC, and HeLa models the mice remain tumor-free at day 61. In the OVCAR5 model tumors recurred at about day 45 after tumor inoculation. Thus, muDS6-DM1 treatment in this model results in a tumor growth delay of approximately 34 days. The growth delay is significant as OVCAR5 cells are less maytansine-sensitive and have low CA6 epitope expression. In models where either the CA6 epitope density is higher or the model has greater maytansine sensitivity, the tumor regression is more robust. It is important to note that only 2 doses were administered. […] It is likely that cures could be achieved with additional or higher conjugate doses.

The subject of a further data set is HPAC tumor xenografts. The data set can be described thus: Subcutaneous HPAC xenograft efficacy study. Format: in vivo, SCID mice. As for the experimental part:
as §3, §4, §5

In another data set the test system is KB cells. Briefly: Flow cytometry binding assay. To be noted: KB. Further details: species or system human. The method, then: (§6) Cells were maintained in a 37° C., 5% CO2 humidified incubator.
(§7) Cells ([…]) were incubated, on ice for 3-4 h, with serially diluted concentrations of the DS6 antibody prepared in FACS buffer (2% goat serum, RPMI) into 96-well plates. The cells were spun down in a table top centrifuge at 1500 rpm for 5 min at 4° C. After removing the media, the wells were then refilled with 150 μl of FACS buffer. The wash step was then repeated. FITC-labeled goat anti-mouse IgG (Jackson Immunoresearch) was diluted 1:100 to FACS buffer and incubated with the cells for 1 h on ice. The plate was covered in foil to prevent photobleaching of the signal. After two washes, the cells were fixed with 1% formaldehyde and analyzed on a flow cytometer.
The affinity of the purified huIgG was compared with muDS6 by flow cytometry. In the first set of experiments direct binding to a CA6-expressing cell line, KB, was measured. […] To confirm that the huDS6 versions retain the affinity of muDS6, competitive binding experiments were conducted. The advantage of this format is that the same detection system is used for both murine and human antibodies; that is biotin-muDS6/streptavidin-DTAF.
The binding was conducted essentially as described for FIG. 20 except that KB cells were used rather than CaOv-3 cells.
(Flow cytometry measures light scatter and fluorescence of single cells or particles in a stream.)

The next data set has as its system HeLa cells. The data set can be described thus: Flow cytometry binding assay. Further details: species or system human. To be noted: HeLa. The method, then: as §6, §7
[3] abbreviates: 600 μg/kg DM1, two weekly doses.
Where [4] appears, read: 600 μg/kg DM1 i.v., two weekly doses.

B1: DS6-DM1: muDS6 antibody modified with SPP and conjugated to the maytansinoid DM1 (conjugate)
VH: QAYLQQSGAELVRSGASVKMSCKASGYTFTSYNMHWVKQTPGQGLEWIGYIYPGNGATNYNQKFKGKATLTADPSSSTAYMQISSLTSEDSAVYFCARGDSVPFAYWGQGTLVTVSA
VL: QIVLTQSPAIMSASPGEKVTITCSAHSSVSFMHWFQQKPGTSPKLWIYSTSSLASGVPARFGGSGSGTSYSLTISRMEAEDAATYYCQQRSSFPLTFGAGTKLELKR
For the molecule B1, the “effect of conjugate on antigen negative cells” value in data set [1] is listed as “only slightly affected”. In addition, the “sensitivity to the conjugate” value is on record as “sensitive” in data set [2] and “None of the pancreatic cell lines appeared to have been affected” in the data set on pancreatic cell lines. Also, the body weight entry in the data set with TOV-21G tumor xenografts (setting [3]), in the data set on OVCAR5 tumor xenografts (setting [3]) and in the data set with HPAC tumor xenografts (setting [3]) was “no weight loss was observed” each time. In addition, the “tumor status at day 61” value in the data set with TOV-21G tumor xenografts (setting [3]) and in the data set with HPAC tumor xenografts (setting [3]) was “tumor-free” in each case. In addition, the tumor regression result with TOV-21G tumor xenografts (setting [4]), with OVCAR5 tumor xenografts (setting [4]) and in the data set with HPAC tumor xenografts (setting [4]) was “complete tumor regression in all mice” each time. Further, in the data set with OVCAR5 tumor xenografts (setting [3]), the “day of tumor recurrence after tumor inoculation” value is ~45 days. In the data set on OVCAR5 tumor xenografts (setting [3]), the tumor growth delay result is reported as “approximately 34 days”.

B2: DS6: murine anti-CA6 monoclonal antibody DS6 (ATCC deposit number PTA-4449) (antibody, V domains shown)
VH: QAYLQQSGAELVRSGASVKMSCKASGYTFTSYNMHWVKQTPGQGLEWIGYIYPGNGATNYNQKFKGKATLTADPSSSTAYMQISSLTSEDSAVYFCARGDSVPFAYWGQGTLVTVSA
VL: QIVLTQSPAIMSASPGEKVTITCSAHSSVSFMHWFQQKPGTSPKLWIYSTSSLASGVPARFGGSGSGTSYSLTISRMEAEDAATYYCQQRSSFPLTFGAGTKLELKR
B2: the entries for the “MMF (average maximum relative mean fluorescence)” value in the data set with KB cells and in the data set with HeLa cells were 119.56 and 242.50, respectively.
